Test results taken from the supplement of paper PMC10126150.
± gives the standard deviation of the averaged measurements.

system: ATP; experiment: switch fluorescence ratio, 500 uM ATP over buffer (Cy3 cluster intensity, sum of 5 cycles each) (fold (ratio)); higher = stronger signal-on switching upon ATP binding; sequences stand for … in TCGTCGGCAGCGTCAGATGTGTATAAGAGACAGTTTTTTTTTTTTTTTTTTTTTTTTT…TC; settings: aptamer strand: ATP DNA aptamer (quencher-CACCTGGGGGAGTATTGCGGAGGAAGG + anchor), 100 nM annealed; ATP concentration: 500 uM
Outline: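 Five buffer/ATP imaging cycles were run on Cy3-labelled switching-strand clusters on a modified Illumina MiSeq flow-cell, with NaOH stripping and re-annealing between cycles. In each cycle, clusters annealed to 100 nM quencher-labelled ATP aptamer were imaged in selection buffer, then after 15 min with 500 uM ATP at 22 °C. Per cluster, the fluorescence ratio is summed target-cycle over summed buffer-cycle Cy3 intensity, averaged per switch-domain sequence. Only clusters within 100-1000 RFU were kept.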
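Also: ATP exposure 15 min at 22 °C before imaging.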

| Sequence | switch fluorescence ratio |
| --- | --- |
| ATCGGGGTCG | 1.05 ± 0.038 |
| ATCGGGTGGG | 1.001 ± 0.0075 |
| ATCGGGTGTG | 0.9871 ± 0.0015 |
| ATCGGGTTGG | 0.965 ± 0.018 |
| ATCGGTATAT | 1.02 ± 0.039 |
| ATCGTCCCGA | 1.05 ± 0.039 |
| ATCGTGCACA | 0.973 ± 0.036 |
| ATCGTGGATT | 0.969 ± 0.019 |
| ATCGTGGGTT | 0.97919 ± 0.00077 |
| ATCGTGTAGG | 0.99 ± 0.11 |
| ATCGTGTATC | 1.06 ± 0.0081 |
| ATCGTTATTA | 1.02 ± 0.018 |
| ATCGTTCCGC | 1.22 ± 0.03 |
| ATCGTTGGG | 1.01 ± 0.055 |
| ATCGTTTCGT | 1.02 ± 0.019 |
| ATCGTTTGTT | 1.04 ± 0.062 |
| ATCGTTTTGA | 0.989 ± 0.013 |
| ATCGTTTTTA | 1.001 ± 0.004 |
| ATCTAAAAGG | 1.01 ± 0.059 |
| ATCTAAACGT | 1.0574 ± 0.00082 |
| ATCTAATTAG | 0.963 ± 0.045 |
| ATCTACCATG | 1.03 ± 0.04 |
| ATCTACGAAA | 1.31 ± 0.03 |
| ATCTAGAGGA | 0.985 ± 0.023 |
| ATCTAGGGGA | 0.9995 ± 0.0066 |

| Sequence | switch fluorescence ratio |
| --- | --- |
| ATCTAGGGGG | 1.05 ± 0.017 |
| ATCTAGGGTG | 1.08 ± 0.012 |
| ATCTAGTAGT | 1.01 ± 0.013 |
| ATCTATAGTG | 0.9651 ± 0.0035 |
| ATCTATGTGG | 0.982 ± 0.035 |
| ATCTCACAGA | 0.989 ± 0.025 |
| ATCTGAACGT | 1.02 ± 0.074 |
| ATCTGAAGGT | 0.975 ± 0.031 |
| ATCTGATAGC | 0.955 ± 0.047 |
| ATCTGATGTC | 0.978 ± 0.018 |
| ATCTGCCTTG | 1 ± 0.019 |
| ATCTGGGAGT | 1.014 ± 0.00032 |
| ATCTGGGGGG | 1 ± 0.064 |
| ATCTGTCTAT | 0.98 ± 0.026 |
| ATCTTAAATA | 0.9918 ± 0.0058 |
| ATCTTGGTCT | 1.01 ± 0.045 |
| ATCTTTTTGG | 0.996 ± 0.024 |
| ATGAAAGACC | 1.0427 ± 0.00025 |
| ATGAAAGGAT | 1.014 ± 0.0042 |
| ATGAAAGGGT | 0.998 ± 0.023 |
| ATGAAATCAG | 0.9991 ± 0.0044 |
| ATGAAGACTA | 0.9962 ± 0.0014 |
| ATGAAGGGAT | 0.9969 ± 0.00076 |
| ATGAAGGTCT | 0.968 ± 0.02 |
| ATGAAGTAGG | 0.989 ± 0.013 |

| Sequence | switch fluorescence ratio |
| --- | --- |
| ATGAAGTGAG | 1.01 ± 0.027 |
| ATGAATAAAT | 1.012 ± 0.0058 |
| ATGAATAGAG | 1.02 ± 0.031 |
| ATGAATGTAT | 0.9855 ± 0.0062 |
| ATGAATTAAA | 0.992 ± 0.018 |
| ATGAATTTTT | 0.992 ± 0.042 |
| ATGACATGGG | 1.04 ± 0.025 |
| ATGACGAAAA | 1.04 ± 0.058 |
| ATGACGCGGG | 0.959 ± 0.023 |
| ATGACGCTTT | 1.02 ± 0.022 |
| ATGACTGGAG | 0.9896 ± 0.0076 |
| ATGACTTGTA | 0.987 ± 0.015 |
| ATGAGAATAG | 1.01 ± 0.0016 |
| ATGAGATAGT | 1.002 ± 0.0049 |
| ATGAGCACAA | 1.09 ± 0.017 |
| ATGAGCATTC | 1.18 ± 0.026 |
| ATGAGGCGAA | 1.01 ± 0.011 |
| ATGAGGCTTT | 1.02 ± 0.011 |
| ATGAGGGCGG | 0.98 ± 0.021 |
| ATGAGGGTCC | 1.1 ± 0.032 |
| ATGAGGGTCG | 0.993 ± 0.014 |
| ATGAGGTTAC | 0.988 ± 0.074 |
| ATGAGTACGG | 1.04 ± 0.03 |
| ATGAGTAGGG | 1.018 ± 0.0098 |
| ATGAGTCATG | 1.01 ± 0.028 |

| Sequence | switch fluorescence ratio |
| --- | --- |
| ATGAGTCGGA | 0.975 ± 0.055 |
| ATGAGTGACC | 1.02 ± 0.016 |
| ATGAGTGGTG | 1.019 ± 0.0077 |
| ATGAGTTATT | 1.01 ± 0.013 |
| ATGAGTTGCG | 0.977 ± 0.029 |
| ATGATACTTC | 0.9968 ± 0.0027 |
| ATGATAGGGA | 1.01 ± 0.063 |
| ATGATAGTAC | 1.04 ± 0.017 |
| ATGATATGCA | 1.017 ± 0.003 |
| ATGATCCCGC | 1.2 ± 0.019 |
| ATGATCTTCG | 1.038 ± 0.0053 |
| ATGATGATAG | 1.01 ± 0.02 |
| ATGATGATGA | 1.03 ± 0.02 |
| ATGATGCTGG | 1.02 ± 0.077 |
| ATGATGTAAT | 0.995 ± 0.051 |
| ATGATTACGT | 1.01 ± 0.03 |
| ATGATTAGGA | 0.987 ± 0.037 |
| ATGATTATGG | 1.02 ± 0.014 |
| ATGATTGCGA | 1.01 ± 0.061 |
| ATGATTGGA | 0.992 ± 0.015 |
| ATGCAACGTC | 0.989 ± 0.049 |
| ATGCACAGAT | 0.994 ± 0.027 |
| ATGCAGAATT | 0.988 ± 0.017 |
| ATGCAGCAGT | 1.46 ± 0.051 |
| ATGCAGGTAT | 1.01 ± 0.049 |

| Sequence | switch fluorescence ratio |
| --- | --- |
| ATGCATCGAG | 1.01 ± 0.03 |
| ATGCATCTAT | 0.989 ± 0.011 |
| ATGCATGGGG | 1.01 ± 0.017 |
| ATGCCAATAA | 1.01 ± 0.03 |
| ATGCCCGTCG | 1.06 ± 0.043 |
| ATGCCGGGGG | 1 ± 0.021 |
| ATGCGCAGCG | 1.04 ± 0.035 |
| ATGCGCTCGA | 1.02 ± 0.053 |
| ATGCGCTGGG | 1.01 ± 0.021 |
| ATGCGGAGTG | 0.987 ± 0.02 |
| ATGCGGGGTC | 1.03 ± 0.053 |
| ATGCGGTCCT | 1.02 ± 0.016 |
| ATGCGGTCGG | 1.02 ± 0.045 |
| ATGCGTAGGT | 0.988 ± 0.049 |
| ATGCGTATCC | 1 ± 0.034 |
| ATGCTGATGT | 1.016 ± 0.0011 |
| ATGCTGGGGT | 0.986 ± 0.021 |
| ATGCTGGGTA | 0.997 ± 0.026 |
| ATGCTTCTGT | 0.964 ± 0.013 |
| ATGCTTGATT | 1.017 ± 0.0041 |
| ATGGAAAAGC | 1 ± 0.056 |
| ATGGAAAGAA | 0.974 ± 0.038 |
| ATGGAAAGTT | 0.99 ± 0.035 |
| ATGGAACTTG | 0.9943 ± 0.0059 |
| ATGGAAGTG | 1.001 ± 0.0015 |

| Sequence | switch fluorescence ratio |
| --- | --- |
| ATGGAATAT | 0.969 ± 0.038 |
| ATGGACATAC | 1.22 ± 0.098 |
| ATGGACTCCT | 1.04 ± 0.044 |
| ATGGAGCAGT | 1.6 ± 0.019 |
| ATGGAGGCGG | 1.04 ± 0.04 |
| ATGGAGGGGG | 1.02 ± 0.047 |
| ATGGATAAGC | 0.997 ± 0.011 |
| ATGGATAATG | 0.977 ± 0.054 |
| ATGGATAATT | 1.04 ± 0.011 |
| ATGGATTGAT | 0.9621 ± 0.0051 |
| ATGGATTTAT | 0.992 ± 0.037 |
| ATGGCACAAT | 1.02 ± 0.067 |
| ATGGCCGATA | 0.9537 ± 0.0027 |
| ATGGCCGGTG | 1.006 ± 0.004 |
| ATGGCCTTAG | 0.9931 ± 0.0094 |
| ATGGCTTGTA | 0.999 ± 0.01 |
| ATGGGAAACT | 1.012 ± 0.0074 |
| ATGGGAATAC | 2.59 ± 0.28 |
| ATGGGACCGT | 1.01 ± 0.056 |
| ATGGGACGAT | 0.995 ± 0.026 |
| ATGGGATGGG | 1 ± 0.025 |
| ATGGGCAACT | 0.99 ± 0.024 |
| ATGGGCACGG | 0.99 ± 0.025 |
| ATGGGCCGAG | 0.989 ± 0.04 |
| ATGGGCCTGG | 0.9792 ± 0.0094 |

| Sequence | switch fluorescence ratio |
| --- | --- |
| ATGGGCGTGG | 1 ± 0.06 |
| ATGGGCTGGA | 1.04 ± 0.015 |
| ATGGGGCCAA | 1.03 ± 0.031 |
| ATGGGGCCTG | 0.9828 ± 0.0078 |
| ATGGGGCTGA | 0.993 ± 0.029 |
| ATGGGGCTTT | 1.01 ± 0.013 |
| ATGGGGGCCG | 1.01 ± 0.039 |
| ATGGGGGCTT | 1.02 ± 0.047 |
| ATGGGGGGCC | 0.995 ± 0.026 |
| ATGGGGGTTC | 0.992 ± 0.023 |
| ATGGGGGTTG | 0.999 ± 0.018 |
| ATGGGGTCAG | 0.993 ± 0.021 |
| ATGGGGTTGG | 1 ± 0.049 |
| ATGGGGTTTT | 1.01 ± 0.02 |
| ATGGGTAGAG | 1 ± 0.022 |
| ATGGGTATGT | 1.01 ± 0.043 |
| ATGGGTCACG | 0.987 ± 0.012 |
| ATGGGTCAGT | 0.9872 ± 0.0044 |
| ATGGGTCGGA | 1.01 ± 0.053 |
| ATGGGTCTAT | 1 ± 0.012 |
| ATGGGTCTT | 1.01 ± 0.023 |
| ATGGGTGGTT | 0.995 ± 0.032 |
| ATGGGTGTCG | 1.05 ± 0.015 |
| ATGGGTTCGC | 0.976 ± 0.035 |
| ATGGGTTCTG | 0.999 ± 0.017 |

| Sequence | switch fluorescence ratio |
| --- | --- |
| ATGGTAAAAA | 1.05 ± 0.1 |
| ATGGTAAACC | 1.16 ± 0.066 |
| ATGGTACCCT | 1.038 ± 0.0052 |
| ATGGTACCGT | 1.02 ± 0.014 |
| ATGGTAGGGT | 1.01 ± 0.018 |
| ATGGTCAGAT | 0.994 ± 0.027 |
| ATGGTCAGGC | 0.973 ± 0.019 |
| ATGGTCATGT | 0.9943 ± 0.0072 |
| ATGGTCCATG | 0.995 ± 0.022 |
| ATGGTCCGGT | 0.988 ± 0.015 |
| ATGGTCTGGG | 0.971 ± 0.011 |
| ATGGTGCAGG | 1.06 ± 0.011 |
| ATGGTGGAGG | 1.01 ± 0.024 |
| ATGGTGGCAT | 1.01 ± 0.012 |
| ATGGTGGGGC | 0.979 ± 0.047 |
| ATGGTGTCTT | 0.961 ± 0.023 |
| ATGGTGTGCG | 1.01 ± 0.025 |
| ATGGTGTGGG | 1.03 ± 0.021 |
| ATGGTGTTTT | 0.9803 ± 0.008 |
| ATGGTTAGCT | 1.02 ± 0.027 |
| ATGGTTAGGG | 1.03 ± 0.033 |
| ATGGTTCCAC | 0.997 ± 0.024 |
| ATGGTTTAGG | 0.988 ± 0.038 |
| ATGGTTTGGG | 0.99 ± 0.045 |
| ATGGTTTTG | 0.975 ± 0.047 |
